Results as given in the supplement of paper PMC9112550, “Optimization of the antimicrobial peptide Bac7 by deep mutational scanning” (BMC Biology, 2022).

Each sequence was assayed on Escherichia coli TOP10 (assay: shrunken log2 fold change of peptide-encoding DNA abundance (4.5 h post-induction vs induction); higher = less antimicrobial activity (less host growth inhibition)). Details: time post-induction: 4.5 h; library: site-saturation at positions 5, 18, 19, 20.
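Further: peptides expressed intracellularly from a pBAD plasmid library in pooled LB shake-flask culture, induced with 0.3% L-arabinose, DNA abundance read by NGS, three biological replicates, DESeq2 with apeglm shrinkage.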

| Sequence | shrunken log2 fold change |
| --- | --- |
| RRIRARPPRLPRPRPRPVHHPRP | -0.0524 |
| RRIRARPPRLPRPRPRPVIMPRP | -0.42 |
| RRIRARPPRLPRPRPRPVKAPRP | 0.0269 |
| RRIRARPPRLPRPRPRPVMPPRP | 0.457 |
| RRIRARPPRLPRPRPRPVMVPRP | 0.0116 |
| RRIRARPPRLPRPRPRPVMYPRP | 0.0749 |
| RRIRARPPRLPRPRPRPVNFPRP | 0.629 |
| RRIRARPPRLPRPRPRPVNWPRP | 0.459 |
| RRIRARPPRLPRPRPRPVPPPRP | 1.05 |
| RRIRARPPRLPRPRPRPVPRPRP | 0.536 |
| RRIRARPPRLPRPRPRPVQEPRP | 0.509 |
| RRIRARPPRLPRPRPRPVQMPRP | 0.21 |
| RRIRARPPRLPRPRPRPVQQPRP | 0.954 |
| RRIRARPPRLPRPRPRPVTLPRP | -0.121 |
| RRIRARPPRLPRPRPRPVVIPRP | 0.206 |
| RRIRARPPRLPRPRPRPVWDPRP | 0.312 |
| RRIRARPPRLPRPRPRPVYDPRP | 0.0386 |
| RRIRARPPRLPRPRPRPVYKPRP | -0.35 |
| RRIRARPPRLPRPRPRPVYQPRP | -0.068 |
| RRIRARPPRLPRPRPRPVYTPRP | -0.159 |
| RRIRARPPRLPRPRPRPWCAPRP | 0.147 |
| RRIRARPPRLPRPRPRPWEAPRP | 0.221 |
| RRIRARPPRLPRPRPRPWELPRP | 0.0412 |
| RRIRARPPRLPRPRPRPWEMPRP | 0.00132 |
| RRIRARPPRLPRPRPRPWEWPRP | 0.0233 |

| Sequence | shrunken log2 fold change |
| --- | --- |
| RRIRARPPRLPRPRPRPWFHPRP | -0.301 |
| RRIRARPPRLPRPRPRPWGAPRP | 0.401 |
| RRIRARPPRLPRPRPRPWGCPRP | 0.211 |
| RRIRARPPRLPRPRPRPWGEPRP | -0.00466 |
| RRIRARPPRLPRPRPRPWKFPRP | -0.00178 |
| RRIRARPPRLPRPRPRPWKSPRP | -0.00111 |
| RRIRARPPRLPRPRPRPWLDPRP | 0.0658 |
| RRIRARPPRLPRPRPRPWLIPRP | 0.111 |
| RRIRARPPRLPRPRPRPWLWPRP | 0.435 |
| RRIRARPPRLPRPRPRPWNHPRP | -0.128 |
| RRIRARPPRLPRPRPRPWPQPRP | 0.403 |
| RRIRARPPRLPRPRPRPWQHPRP | 0.0196 |
| RRIRARPPRLPRPRPRPWQKPRP | -0.0111 |
| RRIRARPPRLPRPRPRPWQVPRP | 0.191 |
| RRIRARPPRLPRPRPRPWRHPRP | 0.333 |
| RRIRARPPRLPRPRPRPWRMPRP | 0.0537 |
| RRIRARPPRLPRPRPRPWRPPRP | 0.348 |
| RRIRARPPRLPRPRPRPWSAPRP | 0.132 |
| RRIRARPPRLPRPRPRPWSQPRP | 0.149 |
| RRIRARPPRLPRPRPRPWTHPRP | 0.04 |
| RRIRARPPRLPRPRPRPWTMPRP | -0.0418 |
| RRIRARPPRLPRPRPRPWVMPRP | -0.156 |
| RRIRARPPRLPRPRPRPWWDPRP | -0.101 |
| RRIRARPPRLPRPRPRPWWKPRP | -0.00149 |
| RRIRARPPRLPRPRPRPWWWPRP | 0.0143 |

| Sequence | shrunken log2 fold change |
| --- | --- |
| RRIRARPPRLPRPRPRPWWYPRP | -0.172 |
| RRIRARPPRLPRPRPRPWYMPRP | -0.958 |
| RRIRARPPRLPRPRPRPYAIPRP | 2.12 |
| RRIRARPPRLPRPRPRPYCGPRP | -0.192 |
| RRIRARPPRLPRPRPRPYCMPRP | -0.495 |
| RRIRARPPRLPRPRPRPYCNPRP | -0.378 |
| RRIRARPPRLPRPRPRPYCTPRP | -0.0621 |
| RRIRARPPRLPRPRPRPYEFPRP | 0.182 |
| RRIRARPPRLPRPRPRPYERPRP | 0.0697 |
| RRIRARPPRLPRPRPRPYFMPRP | -0.62 |
| RRIRARPPRLPRPRPRPYFQPRP | -0.383 |
| RRIRARPPRLPRPRPRPYGDPRP | -0.0672 |
| RRIRARPPRLPRPRPRPYGFPRP | 0.00293 |
| RRIRARPPRLPRPRPRPYHMPRP | 0.00865 |
| RRIRARPPRLPRPRPRPYHQPRP | -0.885 |
| RRIRARPPRLPRPRPRPYIAPRP | -0.438 |
| RRIRARPPRLPRPRPRPYIEPRP | -0.44 |
| RRIRARPPRLPRPRPRPYLPPRP | 0.0397 |
| RRIRARPPRLPRPRPRPYMDPRP | -0.0602 |
| RRIRARPPRLPRPRPRPYMLPRP | -0.659 |
| RRIRARPPRLPRPRPRPYNYPRP | 1.34 |
| RRIRARPPRLPRPRPRPYPHPRP | -0.0654 |
| RRIRARPPRLPRPRPRPYSCPRP | -0.43 |
| RRIRARPPRLPRPRPRPYSNPRP | -0.781 |
| RRIRARPPRLPRPRPRPYVRPRP | -0.377 |
